Results as given in US11319601B2, “Cell based assay” (Medical Diagnostic Laboratories, L.L.C., priority 2017, dated 2022).
“Also recorded” adds a separate entry of the source.

Tests used:
[1] = test system: HER1, HER2 and HER3 receptors; assay: ERK-Luc, JNK-Luc and NFkB-Luc reporters in HEK293 cells co-transfected with HER1, HER2 and HER3, treated with ligand; format: cell-based, human; conditions: ligand 6 hours; HER1, HER2, HER3 co-transfected HEK293
Description: In order to identify reporters to measure the activity of HER2 receptor, expression plasmids of HER1, HER2 and HER3 were co-transfected with different reporter constructs, including ERK-Luc, JNK-Luc and NFkB-Luc, into the HEK293 cells. After 24 hours, the transfected cells were treated with either EGF (HER1 receptor ligand) or NRG1 (HER3 receptor ligand) for 6 hours. The luciferase reporter activity of the transfected cells was measured by Nano-Glo® Luciferase Assay (Promega). […] JNK-Luc reporter was activated when the transfected cells were treated with either HER1 or HER3 ligand (FIG. 11B).
(§1) For cell transfection experiments, HEK293 cells (ATCC) were plated at density of 4-8×10^4 cells per well (96-well plates) or 1-2×10^4 cells per well (384-well plates) in phenol red-free MEM containing 10% FBS and antibiotics. Either DNA plasmid or linear DNA was mixed with TransIT-293 transfection reagent (Mirus Bio LLC). Once cells were trypsinized, DNA transfection mix was added. The cells were then incubated for 24 or 48 hours.

HER2 and HER3 receptors [2] = biological target: T1, HER2 and HER3 receptors (Homo sapiens, UniProt P04626+P21860); assay: ERK-Luc / JNK-Luc / 6×JNK-Luc reporters in HEK293 cells with HER3 and HER2, treated with NRG1; format: cell-based
T1 construct: expressed in transfected cells; host or cells: HEK293
Description: (§2) In order to characterize the specificity of activation of ERK-Luc and JNK-Luc reporters upon treatment of HER3 ligand, ERK-Luc or JNK-Luc was co-transfected with expression plasmids of HER3 and wild-type or kinase-dead HER2 receptors into the HEK293 cells. After 24 hours, the transfected cells were treated with NRG1 (HER3 receptor ligand). The luciferase reporter activity of the transfected cells was measured by Nano-Glo® Luciferase Assay (Promega). In FIG. 13A, no difference in ERK-Luc reporter activity was found between the cells transfected with wild-type HER2 and kinase-dead HER2 after the treatment of NRG1. […] However, the activity of JNK-Luc reporter was reduced in the cells transfected with kinase-dead HER2 compared to the cells transfected with wild-type HER2 (FIG. 13B).
(§3) In order to examine the dose response of NRG1 in the activation of JNK-Luc reporters, JNK-Luc with expression plasmids of HER3 and wild-type HER2 receptors were co-transfected into the HEK293 cells. After 24 hours, the transfected cells were treated with a serial dilution of NRG1 (HER3 receptor ligand) for 6 hours. The luciferase reporter activity of the transfected cells was measured by Nano-Glo® Luciferase Assay (Promega).
(§4) In the previous example, the JNK-Luc reporter contained 3 copies of AP-1 binding site. We observed around 2.6 fold induction of reporter activity when the transfected cells were treated with 100 ng/ml of NRG1 (FIG. 14). In order to enhance the activation of reporter activity, the AP-1 binding site was increased from 3 copies to 6 copies. 6×JNK-Luc was co-transfected with expression plasmids of HER3 and wild-type HER2 receptors into the HEK293 cells. After 24 hours, the transfected cells were treated with 100 ng/ml of NRG1 (HER3 receptor ligand) for 6 hours. The luciferase reporter activity of the transfected cells was measured by Nano-Glo® Luciferase Assay (Promega). In FIG. 15, the 6×JNK-Luc reporter was activated by the treatment of NRG1 only when both HER2 and HER3 receptors were expressed (FIG. 15). Approximately a 4.2 fold induction of reporter activity was found.
as §1

HER2 and HER3 receptors [3] = assay: as above; format: cell-based, human; conditions: HER3 plus wild-type or kinase-dead HER2; HEK293
Description: as §2, §3, §4, §1

wild-type HER2 receptor = biological target: T2, wild-type HER2 receptor (Homo sapiens, UniProt P04626); assay: HER2 reporter cells (clone #1) transfected with wild-type HER2, 384-well plate; format: cell-based
T2 construct: expressed in transfected cells
Description: Clone #1 is alternately referred to as the “HER2 reporter cells”. These cells were transiently transfected with the wild-type, constitutively active or kinase-dead forms of HER2 receptors in the 384-well format. After 24 hours, the transfected cells were treated with NRG1. The luciferase reporter activity of the transfected cells was measured by Nano-Glo® Luciferase Assay (Promega). […] The reporter activity of the transfected cells expressing the wild-type form of HER2 receptor was activated upon treatment with NRG1 (FIG. 25). When the cells were transfected with the constitutively active form of HER2 receptor, the reporter activity was activated in the absence of NRG1. However, no activation of reporter was detected when the cells were transfected with the kinase-dead form of HER2 receptor.
The HER2 reporter cells were first transfected with 100 ng of linear expression cassette of HER2. NRG1 was added to the cells 24 hours post-transfection. […] A robust reporter signal was detected even at 2.5 ng/ml of NRG1.
To further reduce the assay turnaround time, different stimulation methods were explored. The first method evaluated was Example 9d which was performed by addition of NRG1 to the cells 24 hours post-transfection for 4, 6 and 24 hours. […] The reporter activity was measured 24 hours post-transfection (FIG. 27A). […]

T862A HER2 receptor = biological target: T3, T862A HER2 receptor (Homo sapiens, UniProt P04626, T862A); assay: HER2 reporter cells transfected with linear expression cassette of T862A HER2, all-in-one method; format: cell-based
T3 construct: expressed in transfected cells; host or cells: HER2 reporter cells (clone #1)
Excerpt: T862A corresponds to a missense mutation of HER2, which changes Threonine (T) into Alanine (A) at amino acid position of 862. In order to functionally characterize this mutation, PCR-mediated overlapping extension was employed to construct a linear expression cassette of HER2 carrying this mutation. The linear expression cassette of mutant HER2 DNA was transfected into the reporter cells followed by treatment with NRG1 and its inhibitors using the “all-in-one” method. The luciferase reporter activity was measured 24 hours post-transfection.

## NRG1: neuregulin-1, HER3 receptor ligand
[1]
  ERK-Luc reporter activation: activated
  JNK-Luc reporter activation: activated
  NFkB-Luc reporter activation: no activation
HER2 and HER3 receptors [2]; 100 ng/ml of NRG1, 6 hours, HEK293 with HER2 and HER3
  induction of 6×JNK-Luc reporter activity: ~4.2 fold
HER2 and HER3 receptors [2]; 100 ng/ml of NRG1, HEK293 with HER2 and HER3
  induction of JNK-Luc reporter activity (3 copies of AP-1 binding site): around 2.6 fold
HER2 and HER3 receptors [2]; HER3 plus HER2, HEK293, serial dilution 6 hours
  JNK-Luc reporter activation: activated JNK-Luc reporter in a HER2's kinase dependent manner; also recorded: dose dependent activation
HER2 and HER3 receptors [3]
  ERK-Luc reporter activation: effectively activated
wild-type HER2 receptor
  reporter activation by ligand: activated; also recorded: dose-dependent response; also recorded: good dose response; also recorded: dose dependent manner
T862A HER2 receptor
  response of mutant HER2 reporter activity to ligand: dose-dependent manner
